Assay: yeast display, Sf9 membrane polyspecificity reagent, FACS + sequencing; frameworks hold sequencing errors
Outline: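 Synthetic nanobody libraries on Saccharomyces cerevisiae BJ5465 were galactose-induced for 36–48 hours, stained 1 hour at 4 °C with 10% biotinylated, detergent-solubilized Sf9 membrane reagent and enriched on streptavidin microbeads. FACS then separated cells into low and high (top ~1%) gates by anti-HA (expression) and streptavidin (reagent binding) fluorescence. Genes were colony-PCR amplified, MiSeq 2 × 250 sequenced and CDR-length filtered. A clone's polyreactivity label is that of its gate of origin.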

Sequence	polyreactivity (PSR sort gate)
QVQLVESGGGLVQAGGSLRLSCAASGRTYTYYAMGWYRQAPGKERELVAAISDSGGRTYYADSVKGRFTISRDNAKNTVYLQMNSLKPEDTAVYYCAATTYPYYRFDYWGQGTQVTVSS	high polyreactivity
QVQLVESGGGLVQAGGSLRLSCAASGRTYVKNAMGWYRQAPGKERELVAAITSGGSTYYADSVKGRFTISRDNAKNTVYLQMNSLKPEDTAVYYCAAAWSSRYVSRYYYWGQGTQVTVSS	high polyreactivity
QVQLVESGGGLVQAGGSLRLSCAASGRTYYPNAIGWYRQAPGKEMDLVADITYSGASTYYADSVKGRFTISRDNAKNTVYLQMNSLKPEDTAVYYCAVPGATSYFAYDSWGQGTQVTVSS	low polyreactivity
QVQLVESGGGLVQAGGSLRLSCAASGRVLPPNAIGWYRQAPGKERELVAAINWSSGRTYYADSVKGRFTISRDYAKNSVYLQMNSLKPEDTAVYDCAKAYRYAYGYDYWGQGTQVTVSS	high polyreactivity
QVQLVESGGGLVQAGGSLRLSCAASGRVRYAIGWYRQAPGKESELVASITRRAGNTYYADSVKGRFTISRDNAKNTVYLQMNSLKPEDTAVYYCAAADVGAYRGNYWGQGTLVTVSS	high polyreactivity
QVQLVESGGGLVQAGGSLRLSCAASGSARYAMGWYRQATGNERELVAAISRRGGSTYYADSVKGRFTISRDNATKTVYLHMNSLKPEDTAVYYCAADGRISYDYWGQGTQVTVSS	low polyreactivity
QVQLVESGGGLVQAGGSLRLSCAASGSARYDMGWYRQPNGKERELVAAISRRGGSTFYADSVKGRFTISRDNAKNTVYLQMNSLKPEDTAVYYCAADGRISYDYWGQGTQVTVSS	low polyreactivity
QVQLVESGGGLVQAGGSLRLSCAASGSASRGNAMGWYRQAPGKERELVATISQSGGNTFYADSVKGRFTISRDNAKNSVYLQMNSLKPEDTAVYYCAAGRYWFGWYDYWGQGTQVTVSS	high polyreactivity
QVQLVESGGGLVQAGGSLRLSCAASGSIAMGWYRQAPGKERELVATISSSGGSTYYADSVKGRFTISRDNAKNTVYLQMNSLKPEDTAVYYCNTQAVYGGGEGGYDYWGQGTQVTVSS	low polyreactivity
QVQLVESGGGLVQAGGSLRLSCAASGSICAFYGMRWYRQAPGKERELVAAITRSGGSTYYADSVKGRFTISRDNAKNTVYLQMNSLKAEDTAVSYCAKRPHHGSTKYNYWGQGTQVTVSS	low polyreactivity
QVQLVESGGGLVQAGGSLRLSCAASGSICYDDMGWYSQAPGKERELVAAITWSGGSTYYADSVKGRFTISRDNAKNTVYLQMNSLKPEDTAVYYCAAIFGYGSTWWRWGKDDYWGQGTQVTVSS	high polyreactivity
QVQLVESGGGLVQAGGSLRLSCAASGSIDGYAMGWYRQAPGKERELVAAISKGGGNTYYADSVKGRFTISRDNAKNTVYLQMNSLKPEDTAVYYCAARRQIIWGQGTQVTVSS	high polyreactivity
QVQLVESGGGLVQAGGSLRLSCAASGSIFAANAMGWYRQAPGKERELVAAITRGGRTYYADSVKGRFTISRDNAKNTVYLQMNSLKPEDTAVYYCAAYVFSKREYYRYDYWGQGTQVTVSS	high polyreactivity
QVQLVESGGGLVQAGGSLRLSCAASGSIFAAYAKGWYIQAPGKERELVAAISDRGGSTYYADSVKGRFTISRDNSKITVYLQMNSLKPEDTAVYYCATSVFDVRGGPFYYWGQGTQVNVSS	high polyreactivity
QVQLVESGGGLVQAGGSLRLSCAASGSIFAAYVMGWYRQAPGKERELVAAISYSGGGTYYADSVKGRFTISRDNAKNTVYLQMNSLKPEDTAVYYCAADFGVFKSARYYYWGQGTQVTVSS	low polyreactivity
QVQLVESGGGLVQAGGSLRLSCAASGSIFADYTMGWYRQAPGKERELVAAITSGGSTYYADSVKGRFTISRDNAKNTVYLQMNSLKPEDTAVYYCAAYYGGRGYWGQGTQVTVSS	low polyreactivity
QVQLVESGGGLVQAGGSLRLSCAASGSIFAENAMGCYRQAPGKERELVAAITRSGGSTYYADSVKGRFTISRDNAKNTVYLQMNSLKPEDTAVYYCAAREIASDDWGPDDYWGQGTQVTVSS	low polyreactivity
QVQLVESGGGLVQAGGSLRLSCAASGSIFAEYAMGWYRQAPGKERELVAAINGGGSTYYADSVKGRFTISRDNAKNTVYLEMNSLKPEDTAVYYCAAEKYTSWYSFWGYLYDYWGQGTQVTVSS	high polyreactivity
QVQLVESGGGLVQAGGSLRLSCAASGSIFAFYAMGLYRQAPGKERELVAAITASGGRTYYADSVKGRFTISRDIAKNTVYLQMNSLKPEDTAVYYCAAERQTIYIGLYGYPGWSQYNYWGQGTQVTVSS	low polyreactivity
QVQLVESGGGLVQAGGSLRLSCAASGSIFAFYAMGRYRQAPGKERELVAAISYNGGSTYYADSVKGRFTISRDNAKNTVYLQMNSLKAEDTAVYYCAAYHFRAPSEYDYWGQGTQVTVSS	low polyreactivity
QVQLVESGGGLVQAGGSLRLSCAASGSIFAFYVMGWYRQAPGKERELVAAINRGGTNTYYADSVKGRFTISRDNGKNTVYLQMNSLKPEDTAVYYCAAQRYGGMDYWGQGTQVTVSS	high polyreactivity
QVQLVESGGGLVQAGGSLRLSCAASGSIFAGNAMGWYCHAPGKERELVAAIRYGGTSTYYADSVKGRFTISRDNAKNTVYLQMNSLIPEDTAVYYCAATDWWGYYYWGQGTQVTVSS	high polyreactivity

Sequence	polyreactivity (PSR sort gate)
QVQLVESGGGLVQAGGSLRLSCAASGSIFAGNAMGWYRQAPGKERELVAAISRRGGSTYYADSVKGRFTISRDNAKNTVYLQMNSLKPEDTAVYYCNALLRYAYHAAYGYWGQGPQVTVSS	high polyreactivity
QVQLVESGGGLVQAGGSLRLSCAASGSIFAGYAMGWYRKAPGKERELVAVISSTGSTYYADSVKGRFTISRDNAKNTVYLQMNSLKTEDTAVYYCNAYRYWSPGYDYWGQGTQVTVSS	low polyreactivity
QVQLVESGGGLVQAGGSLRLSCAASGSIFAGYAMGWYRPAPGKERELVAAINWTGDSTYYADSVKGRFTISRDNAKNTVYLQMNSLKPEDTAVYYCAAIRRQKGLWDYYYWGQGTQVTVSS	low polyreactivity
QVQLVESGGGLVQAGGSLRLSCAASGSIFAGYAMGWYRQAPGKERELVAAISSSGSRTYYADSVKGRFTISRDNAKNTVYLHMNSLKPEDTAVYYCATQSWVRYGQPEFDYWGQGTQVTVSS	high polyreactivity
QVQLVESGGGLVQAGGSLRLSCAASGSIFAGYAMGWYRQAPGKERELVAAITSSGGSTYYADSVKGRFTISRDNAKNTVYLQMTSLKPEDTAVYYCAKDKLILYRVGSDYWGQGTQVTVSS	low polyreactivity
QVQLVESGGGLVQAGGSLRLSCAASGSIFAHYAMGWYRQAPGKERELVAAISWGGGRTYYADSVKGRFTISRDNAKNTVYLQMNSLKPEDTAVYYCAARAANKSNYWGQGTQVTVSS	low polyreactivity
QVQLVESGGGLVQAGGSLRLSCAASGSIFAINAMGWYRQAPGKERELVAAIRSGGRTYSADSEKGRFTISRDNAKITVYLQMNSLKPEDTAVYYCTDGGKWIGSDYWGQGTQVTVSS	high polyreactivity
QVQLVESGGGLVQAGGSLRLSCAASGSIFAINAMGWYRQAPGKERELVAGITSGGSTYYADSVKGRFTISRDNAKNTVYLQMNSLKPEDTAVYYCAVQVVRSWLVTYYYWGQGTQVTVSS	high polyreactivity
QVQLVESGGGLVQAGGSLRLSCAASGSIFAIYTMGWYRQAPGKVRELVAGITKSGGNTYYADSVKGRFTISRDNAKNTVYLQMNSLKPEDTSVYYCAASQYEYYDGWYRYDYWGQGTQVTVSS	high polyreactivity
QVQLVESGGGLVQAGGSLRLSCAASGSIFAKYAMGWYRQAPGKERELVAAITSSGDSTNYADSVKGRFTISRDNAKNTVYLQMNSLKPEDTAVYYCAADDQYGYVYYAFWGYDYWGQGTQVTVSS	low polyreactivity
QVQLVESGGGLVQAGGSLRLSCAASGSIFAKYPMGWYRQAPGKERELVAAISSGGSTYYADSVKGRFTISRDNAKNTVYLQMNSLKPEDTAVYYCNKPYGKETRYTFNVWYEYNYWGQGTQVTVSS	low polyreactivity
QVQLVESGGGLVQAGGSLRLSCAASGSIFANNAMGWYRQAPGKERELVAAIDWSAASTYYADSVKGRFTISRDNAKNTVYLQMNSLKPEDTAVYYCNARALGGGHIGFNHYVYGFGYWGQGTQVTVSS	low polyreactivity
QVQLVESGGGLVQAGGSLRLSCAASGSIFARNAMGWYRQAPGTERELVASITWSGASTYYADSVKGRFTMSRDNATNTVSLQLNSLKPDDTAVYYCAATAQKLSLDYSSYEYWGQGTQVTVSS	low polyreactivity
QVQLVESGGGLVQAGGSLRLSCAASGSIFARYAIGWYRQAPGKERELVAAISSDGSTYYADSVKGRFTISRDNAKNTVYLQMNSLKPEDTAVYYCAARAFYYAGDWYGYWGQGTQVTVSS	high polyreactivity
QVQLVESGGGLVQAGGSLRLSCAASGSIFARYTMGWYRQAPGKERELVASITWRTGSTYYADSVKGRFTISRDNAKNTVYLQMNSLKPEDTAVYYCNKAYTITQYGWIPLGYWGQGTQVTVSS	high polyreactivity
QVQLVESGGGLVQAGGSLRLSCAASGSIFASNALGWYRQAPGKERELVAAIDTSGGSTYYADSVKGRFTISRDNAKNTVYLQMNSLKPEDTAVYYCNTDWRDEYYPRYRASKFDYWGQGTQVTVSS	low polyreactivity
QVQLVESGGGLVQAGGSLRLSCAASGSIFASNAMGWYRQAPGKDTELVAAITYSGGSTYYADSVKGRFTISRDNAKKTVDLQMNSLKPEDTAVYYCAADVSVPQRYDYWGQGTQVTVSS	low polyreactivity
QVQLVESGGGLVQAGGSLRLSCAASGSIFASNAMGWYRQAPGKEREFVAAITWRTDRTHYADSVKGRFTISRDNAKNTVYLQMNSLKPEDTAVYYCAADTWFYRFYYWGQGTQVTVSS	high polyreactivity
QVQLVESGGGLVQAGGSLRLSCAASGSIFASNAMGWYRQAPGKERELVAAINSGDSTNYADSVKGRFTISRDNAKNTVYLQMNSLKPEDTAVYFCARGLEERYDYWGQGTQVTVSS	low polyreactivity
QVQLVESGGGLVQAGGSLRLSCAASGSIFASYAMGWYRQAPGKERELVAAIRSSGGRTYYADSVKGRFTISRDNAKYTVYLQMYSLKPEDTAVYYCNDRRPGYRPYGYDYWGQGTQVTVSS	high polyreactivity
QVQLVESGGGLVQAGGSLRLSCAASGSIFASYAMGWYRQAPGKERELVAAITTSGGRTYYADSVKGRFTISRDNAKNTVYLQMNSLKPEDTAVYYCARRPRGGRYAYYSWGQGTQVTVSS	high polyreactivity

From the nanobody polyreactivity screen of Harvey et al. (2022)
